Measured values from patent publication US20240376455.

System: T1, LPG10159 (Contaminated/multiple)
T1 sequence: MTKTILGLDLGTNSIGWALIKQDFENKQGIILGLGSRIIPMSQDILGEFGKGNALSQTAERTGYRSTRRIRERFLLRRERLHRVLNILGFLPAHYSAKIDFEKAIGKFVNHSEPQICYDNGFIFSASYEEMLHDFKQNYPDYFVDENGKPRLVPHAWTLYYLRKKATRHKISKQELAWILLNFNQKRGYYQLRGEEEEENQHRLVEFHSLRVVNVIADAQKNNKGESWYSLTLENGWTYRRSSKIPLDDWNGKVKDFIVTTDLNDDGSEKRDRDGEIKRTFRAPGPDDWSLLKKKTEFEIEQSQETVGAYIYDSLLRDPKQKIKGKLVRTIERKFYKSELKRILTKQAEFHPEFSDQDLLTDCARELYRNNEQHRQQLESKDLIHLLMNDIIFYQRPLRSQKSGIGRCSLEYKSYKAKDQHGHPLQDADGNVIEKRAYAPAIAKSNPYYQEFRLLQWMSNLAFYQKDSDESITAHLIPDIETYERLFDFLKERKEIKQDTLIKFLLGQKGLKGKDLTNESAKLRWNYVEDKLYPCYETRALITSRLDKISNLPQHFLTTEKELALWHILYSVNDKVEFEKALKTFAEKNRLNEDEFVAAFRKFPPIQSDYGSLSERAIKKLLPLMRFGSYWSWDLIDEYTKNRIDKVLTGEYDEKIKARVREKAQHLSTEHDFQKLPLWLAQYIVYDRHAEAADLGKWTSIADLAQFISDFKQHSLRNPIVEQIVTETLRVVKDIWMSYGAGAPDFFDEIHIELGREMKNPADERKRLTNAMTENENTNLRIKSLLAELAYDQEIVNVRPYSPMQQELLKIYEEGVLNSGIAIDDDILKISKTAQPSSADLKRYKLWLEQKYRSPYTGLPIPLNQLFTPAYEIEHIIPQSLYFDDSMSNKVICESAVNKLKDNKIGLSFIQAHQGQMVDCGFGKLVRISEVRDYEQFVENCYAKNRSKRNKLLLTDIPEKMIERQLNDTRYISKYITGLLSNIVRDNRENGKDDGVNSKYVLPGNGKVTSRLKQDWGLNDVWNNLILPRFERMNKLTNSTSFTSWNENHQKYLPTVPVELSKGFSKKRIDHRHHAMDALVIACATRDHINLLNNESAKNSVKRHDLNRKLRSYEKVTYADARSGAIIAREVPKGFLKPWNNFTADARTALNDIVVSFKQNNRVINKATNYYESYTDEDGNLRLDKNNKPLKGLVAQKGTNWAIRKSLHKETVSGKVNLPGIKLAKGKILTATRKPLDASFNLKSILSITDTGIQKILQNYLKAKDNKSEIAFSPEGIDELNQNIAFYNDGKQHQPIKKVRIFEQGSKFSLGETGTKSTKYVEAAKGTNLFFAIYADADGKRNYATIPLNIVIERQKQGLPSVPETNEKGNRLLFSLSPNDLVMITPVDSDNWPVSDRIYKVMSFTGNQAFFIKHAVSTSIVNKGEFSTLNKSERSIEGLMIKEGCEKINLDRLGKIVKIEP
Experiment: cleavage_in_vitro
Conditions: PAM SEQ ID 83

GUUGUGAAUUGCUUUAAAGAAAGCAAUUCACAAUAAGGAUUAUUCCGUUGUGAAAACAUCUAGCGCCUCGUCUAUCUACGGGGCAUUUU / GATATAGACGTTGTGGCTGTTGTAGTAGAAATTC / GAATTTCTACTACAACAGCCACAACGTCTATATC [LPG10159 sgRNA L2 ; Library 2 target AGAAATTC]
activity (% target strand cleaved): 2.5
